Starred links: 1 amine or outer side, 2 acyl side, 3 side chain; linkers in the order of their positions; H or OH if unused. Positions of bridges follow the written chain, without caps; N, C: chain ends. Non-standard residues stand in square brackets, D forms with d. Primed or numbered codes have the meaning given here. PyrS2″ = (S)-3-amino-1-((pent-4-en-1-yloxy)carbonyl)pyrrolidine-3-carboxylic acid (stapling residue), C=CCCCOC(=O)N1CC[C@@](N[*:1])(C(=O)[*:2])C1; B5(4) = 2,2-bis(4-pentenyl)glycine = 2-amino-2-(pent-4-en-1-yl)hept-6-enoic acid (stitching residue), C=CCCCC(CCCC=C)(N[*:1])C(=O)[*:2]; B5(5) = 2,2-bis(4-pentenyl)glycine, 2-amino-2-(pent-4-en-1-yl)hept-6-enoic acid (stitching residue), C=CCCCC(CCCC=C)(N[*:1])C(=O)[*:2]; PyrS2 = (S)-3-amino-1-((pent-4-en-1-yloxy)carbonyl)pyrrolidine-3-carboxylic acid, C=CCCCOC(=O)N1CC[C@@](N[*:1])(C(=O)[*:2])C1; B5 = 2-amino-2-(pent-4-en-1-yl)hept-6-enoic acid, C=CCCCC(CCCC=C)(N[*:1])C(=O)[*:2]; Phe(3-CF3) = N[C@@H](Cc1cccc(C(F)(F)F)c1)C(=O)O; Phe(4-CF3) = N[C@@H](Cc1ccc(C(F)(F)F)cc1)C(=O)O; Phe(3-COOH) = N[C@@H](Cc1cccc(C(=O)O)c1)C(=O)O; 2F3MeF = Cc1cccc(C[C@H](N[*:1])C(=O)[*:2])c1F; Phe(2-CF3) = N[C@@H](Cc1ccccc1C(F)(F)F)C(=O)O; Phe(3,5-F2) = N[C@@H](Cc1cc(F)cc(F)c1)C(=O)O; Bta = N[C@@H](Cc1csc2ccccc12)C(=O)O; αAllylPro = C=CC[C@@]1(C(=O)O)CCCN1; tBuAla = CC(C)(C)C[C@H](N)C(=O)O; S8 = C=CCCCCCC[C@](C)(N)C(=O)O
T1: full-length beta-Catenin (Uniprot ID P35222) (Homo sapiens (Human), UniProt P35222 2-781)
T1 construct: The AlphaScreen assay used a Histidine (Nickel Chelate) detection kit, so a His tag is likely, but no tag is described; also called B-Catenin; bCat
T1 sequence: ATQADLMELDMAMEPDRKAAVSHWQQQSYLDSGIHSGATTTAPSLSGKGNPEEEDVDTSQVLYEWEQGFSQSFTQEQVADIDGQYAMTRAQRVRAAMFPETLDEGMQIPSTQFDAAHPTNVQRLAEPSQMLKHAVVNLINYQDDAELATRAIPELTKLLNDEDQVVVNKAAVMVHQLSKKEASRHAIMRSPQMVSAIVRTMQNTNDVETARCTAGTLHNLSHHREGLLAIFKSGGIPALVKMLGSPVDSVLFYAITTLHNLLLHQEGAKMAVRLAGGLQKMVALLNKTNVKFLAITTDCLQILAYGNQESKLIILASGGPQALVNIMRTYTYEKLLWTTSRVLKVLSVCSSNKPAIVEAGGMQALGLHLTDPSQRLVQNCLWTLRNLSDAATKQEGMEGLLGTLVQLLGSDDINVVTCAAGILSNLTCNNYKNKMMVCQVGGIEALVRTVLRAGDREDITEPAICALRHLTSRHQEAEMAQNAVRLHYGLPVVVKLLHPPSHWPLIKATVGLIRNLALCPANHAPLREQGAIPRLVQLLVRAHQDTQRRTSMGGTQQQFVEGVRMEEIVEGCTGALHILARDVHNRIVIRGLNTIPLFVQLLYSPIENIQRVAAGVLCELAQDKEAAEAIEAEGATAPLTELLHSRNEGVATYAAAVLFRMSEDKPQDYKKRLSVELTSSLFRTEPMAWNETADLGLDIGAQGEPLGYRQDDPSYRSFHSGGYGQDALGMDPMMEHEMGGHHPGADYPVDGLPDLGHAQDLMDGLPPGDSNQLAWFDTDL

T2: beta-catenin in DLD1 TCF/LEF luciferase reporter cells (UniProt P35222 1-781)
T2 sequence (looked up): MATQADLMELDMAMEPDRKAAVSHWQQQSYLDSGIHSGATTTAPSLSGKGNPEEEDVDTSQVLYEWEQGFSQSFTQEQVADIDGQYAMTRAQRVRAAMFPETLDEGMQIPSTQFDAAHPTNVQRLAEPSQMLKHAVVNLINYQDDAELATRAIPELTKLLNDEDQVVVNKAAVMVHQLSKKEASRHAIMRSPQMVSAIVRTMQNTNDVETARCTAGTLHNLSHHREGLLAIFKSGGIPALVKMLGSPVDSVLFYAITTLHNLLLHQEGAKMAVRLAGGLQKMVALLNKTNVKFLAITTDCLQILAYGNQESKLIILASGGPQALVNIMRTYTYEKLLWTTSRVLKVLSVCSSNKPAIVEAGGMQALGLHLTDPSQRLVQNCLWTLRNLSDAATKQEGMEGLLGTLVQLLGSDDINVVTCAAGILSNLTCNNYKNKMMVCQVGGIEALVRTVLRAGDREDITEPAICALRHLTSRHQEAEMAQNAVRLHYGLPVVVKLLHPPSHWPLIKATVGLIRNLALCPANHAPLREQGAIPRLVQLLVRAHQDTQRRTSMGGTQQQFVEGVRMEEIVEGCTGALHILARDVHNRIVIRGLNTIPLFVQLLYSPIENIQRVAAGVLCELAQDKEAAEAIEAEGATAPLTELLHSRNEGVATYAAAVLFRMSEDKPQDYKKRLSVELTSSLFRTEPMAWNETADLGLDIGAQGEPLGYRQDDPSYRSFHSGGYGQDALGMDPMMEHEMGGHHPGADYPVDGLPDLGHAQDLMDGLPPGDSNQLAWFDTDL

B1: I-217 (peptide)
peptide: Ac-[αAllylPro]DA[B5(4)]DEAAXV[S8]FWQ-NH2
modifications: staple 1-4, 4-11; not fully specified (residue 9); printed as Ac-PL3-Asp-Ala-B5-Asp-Glu-Ala-Ala-MeTyr-Val-S8-Phe-Trp-Gln-NH2
notes: Stapled peptide composition; also called Ac-PL3-Asp-Ala-B5-Asp-Glu-Ala-Ala-MeTyr-Val-S8-Phe-Trp-Gln-NH2
B2: I-218 (peptide)
peptide: Ac-[αAllylPro]DA[B5(4)]DEAAXV[S8]FWQ-NH2
modifications: staple 1-4, 4-11; not fully specified (residue 9); printed as Ac-PL3-Asp-Ala-B5-Asp-Glu-Ala-Ala-MeTyr-Val-S8-Phe-Trp-Gln-NH2
notes: as for B1
B3: I-219 (peptide)
peptide: Ac-[αAllylPro]DA[B5(4)]DEAA[Phe(3,5-F2)]V[S8]FWQ-NH2
modifications: staple 1-4, 4-11
notes: Stapled peptide composition; also called Ac-PL3-Asp-Ala-B5-Asp-Glu-Ala-Ala-35FF-Val-S8-Phe-Trp-Gln-NH2
B4: I-220 (peptide)
peptide: Ac-[αAllylPro]DA[B5(4)]DEAA[Phe(3,5-F2)]V[S8]FWQ-NH2
modifications: staple 1-4, 4-11
notes: as for B3
B5: I-250 (peptide)
peptide: Ac-[αAllylPro]DA[B5]DDAAFV[S8][Phe(3-CF3)]WQ-NH2
modifications: staple 1-4, 4-11
notes: Stapled peptide composition; also called Ac-PL3-Asp-Ala-B5-Asp-Asp-Ala-Ala-Phe-Val-S8-3F3MeF-Trp-Gln-NH2
B6: I-251 (peptide)
peptide: Ac-[αAllylPro]DA[B5]DDAAFV[S8][Phe(3-CF3)]WQ-NH2
modifications: staple 1-4, 4-11
notes: as for B5
B7: I-254 (peptide)
peptide: XDAXDDAAFVXFWQ
modifications: not fully specified; N-terminal Ac; C-terminal NH2; PL3 at 1, B5 at 4, S8 at 11 (staples 1-4 and 4-11 by olefin metathesis); 4F3MeF at 12
notes: Stapled peptide composition; also called Ac-PL3-Asp-Ala-B5-Asp-Asp-Ala-Ala-Phe-Val-S8-4F3MeF-Trp-Gln-NH2
B8: I-255 (peptide)
peptide: Ac-[αAllylPro]DA[B5(4)]DDAAFV[S8][Phe(4-CF3)]WQ-NH2
modifications: staple 1-4, 4-11
notes: as for B7

molecular target: T1, full-length beta-Catenin (Uniprot ID …); experiment: fluorescence polarization competition: full-length beta-catenin + 5FAM-TCF4(10-53) probe, peptide titrated
Procedure: (§1) The plate was incubated protected from light for 60 minutes at 20° C. prior to read. Reads were performed on a CLARIOstar plate reader (BMG Labtech) in duplicate, and data were fitted to a 1:1 binding model with hill slope using an in-house script. All provided concentrations are final concentrations.

Question: B1 was tested. Which EC50 did it give?
Answer: Its EC50 is 1960 nM.

Question: How did the EC50 turn out when B2 was run?
Answer: Its EC50 is 1960 nM.

Question: For B3, which EC50 is on record?
Answer: Its EC50 is 2860 nM.

Question: How did the EC50 turn out when B4 was run?
Answer: The EC50 was 2860 nM.

Question: Which EC50 does the source give for B5 here?
Answer: Its EC50 is 5000 nM.

Question: B6 was tested. Which EC50 did it give?
Answer: Its EC50 is 5000 nM.

Question: For B7, which EC50 is on record?
Answer: The EC50 was 5000 nM.

Question: Which EC50 does the source give for B8 here?
Answer: Its EC50 is 5000 nM.

molecular target: T2, beta-catenin in DLD1 TCF/LEF luciferase …; experiment: cell-based or functional assay

Question: How did the “DLD1 4% Abs IC50” value turn out when Ac-[αAllylPro]D[tBuAla][B5(5)]D[Phe(3-COOH)]AAFL[PyrS2][Phe(2-CF3)][Bta]QL[dL]-NH2 (staple 1-4, 4-11) [I-2396] was run?
Answer: The value was 1500 nM.

Question: For Ac-[αAllylPro]D[tBuAla][B5(5)]D[Phe(3-COOH)]AAFL[PyrS2″][2F3MeF][Bta]QL[dQ]-NH2 (staple 1-4, 4-11) [I-2398], which “DLD1 4% Abs IC50” value is on record?
Answer: The value was 1300 nM.

Question: Ac-[αAllylPro]D[tBuAla][B5(5)]D[Phe(3-COOH)]AAFL[PyrS2][Phe(2-CF3)][Bta]QAA-NH2 (staple 1-4, 4-11) [I-2399] was tested. Which “DLD1 4% Abs IC50” value did it give?
Answer: The value was 2200 nM.

Question: Ac-[αAllylPro]D[tBuAla][B5(5)]D[Phe(3-COOH)]AAFL[PyrS2][Phe(2-CF3)][Bta]QFA-NH2 (staple 1-4, 4-11) [I-2400] was tested. Which “DLD1 4% Abs IC50” value did it give?
Answer: Its value is 800 nM.

Question: With Ac-[αAllylPro]D[tBuAla][B5(5)]D[Phe(3-COOH)]AAFL[PyrS2][Phe(2-CF3)][Bta]QVA-NH2 (staple 1-4, 4-11) [I-2401] as the binder, how does the “DLD1 4% Abs IC50” value read?
Answer: The value was 800 nM.

molecular target: T1, full-length beta-Catenin (Uniprot ID …); experiment: AlphaScreen competition: full-length beta-catenin + biotin-TCF4(10-53) probe, peptide titrated
Procedure: as §1, with “Equal volume of the titrated peptide was added to the” for “The”, “and” for “was”, “incubated for 15 minutes at 20° C. Then 4 uL of donor and 4 uL acceptor beads at 10 ug/mL were added to the plate, for a 16 uL reaction pool and” for “incubated”

Question: B1 was tested. Which EC50 did it give?
Answer: The EC50 was 90 nM.

Question: With B2 as the binder, how does the EC50 read?
Answer: The EC50 was 90 nM.

Question: How did the EC50 turn out when B3 was run?
Answer: Its EC50 is 131 nM.

Question: How did the EC50 turn out when B4 was run?
Answer: The EC50 was 131 nM.

Question: B5 was tested. Which EC50 did it give?
Answer: Its EC50 is 1200 nM.

Question: Which EC50 does the source give for B6 here?
Answer: Its EC50 is 1200 nM.

Question: How did the EC50 turn out when B7 was run?
Answer: Its EC50 is 1960 nM.

Question: For B8, which EC50 is on record?
Answer: Its EC50 is 1960 nM.

Source: patent publication US20240116985A1 (published 2024)
